# Assay results as given in patent US20230218743A1 (IMMUNITYBIO, published 2023).
# Where two headings read alike, the source gives them in different places.
# Tests used:
# [1] = target: SARS-CoV-2 Spike protein on live SARS-CoV-2 (SARS-CoV-2, UniProt P0DTC2 14-1273); experiment: cell-based or functional assay
# [2] = target: T1, SARS-CoV-2 Spike receptor binding domain, wild-type (SARS-CoV-2, UniProt P0DTC2 319-541); experiment: Octet, IgG1 on AHC biosensor
# T1 construct: domain: RBD
# [3] = target: T2, RBD-SD1 (SARS-CoV-2, UniProt P0DTC2 319-591); experiment: Octet, IgG1 on AHC biosensor
# [4] = target: T2, RBD-SD1; experiment: epitope analysis, FIG. 4B
# [5] = target: T2, RBD-SD1
# [6] = target: T2, RBD-SD1; remark: listed apart in the source
# [7] = target: T2, RBD-SD1; remark: listed apart in the source
Binder,live SARS-CoV-2 neutralization IC50 [1] [µg/mL],binding result [2],binding result [3],also measured
"N-612-004 (antibody, V domains shown) VH: EVQLVESGGGLVQPGGSLRLSCAASGFTFSSYYMHWVRQAPGKGLEWVSAISGSGGYTYYADSVKGRFTISRDNSKNTLYLQMNSLRAEDTAVYYCARDRDHAYDWGFDVWGQGTLVTVSS VL: DIQMTQSPSSLSASVGDRVTITCQASQDISNYLNWYQQKPGKAPKLLIYDASNLETGVPSRFSGSGSGTDFTFTISSLQPEDIATYYCQQWADWPLTFGQGTKVEIK",0.194,,,
"N-612-007 (antibody, V domains shown) VH: EVQLVESGGGLVQPGGSLRLSCAASGFTFSNYAMHWVRQAPGKGLEWVSAISGNGGSTGYADSVKGRFTISRDNSKNTLYLQMNSLRAEDTAVYYCARDRWYVKNAFDVWGQGTLVTVSS VL: not shown",0.0452,no binding (tested: 2x dilution series starting at 100 nM),no binding (tested: 2x dilution series starting at 100 nM),
"N-612-017 (antibody, V domains shown) VH: EVQLVESGGGLVQPGGSLRLSCAASGFTFSSYAMHWVRQAPGKGLEWVSAIWGSGSNTYYADSVKGRFTISRDNSKNTLYLQMNSLRAEDTAVYYCARGRDLAAFTKTAFDVWGQGTLVTVSS VL: not shown",0.0756,,,koff [4]: 0.0019 s⁻¹; Kd [5]: 6.19 nM; koff [5]: 0.00627 s⁻¹; kon [5]: 1.01e+06 M⁻¹ s⁻¹
"N-612-056 (antibody, V domains shown) VH: not shown VL: DIQMTQSPSSLSASVGDRVTITCQASQDISNYLNWYQQKPGKAPKLLIYDASNLETGVPSRFSGSGSGTDFTFTISSLQPEDIATYYCQQDAGTPLTFGQGTKVEIK",0.855,,,
"N-612-014 (antibody, V domains shown) VH: EVQLVESGGGLVQPGGSLRLSCAASGFTFSSYAMTWVRQAPGKGLEWVSYISGSGGGTYYADSVKGRFTISRDNSKNTLYLQMNSLRAEDTAVYYCARDRWASGWLAFDVWGQGTLVTVSS VL: not shown",0.00791,no binding (tested: 2x dilution series starting at 100 nM),no binding (tested: 2x dilution series starting at 100 nM),
"612-017 (scFv, V domains shown) VH: EVQLVESGGGLVQPGGSLRLSCAASGFTFSSYAMHWVRQAPGKGLEWVSAIWGSGSNTYYADSVKGRFTISRDNSKNTLYLQMNSLRAEDTAVYYCARGRDLAAFTKTAFDVWGQGTLVTVSS VL: not shown",,,,Kd [6]: 10.2 nM
"612-056 (scFv, V domains shown) VH: not shown VL: DIQMTQSPSSLSASVGDRVTITCQASQDISNYLNWYQQKPGKAPKLLIYDASNLETGVPSRFSGSGSGTDFTFTISSLQPEDIATYYCQQDAGTPLTFGQGTKVEIK",,,,Kd [7]: 4.77 nM
"N-612-044 (antibody, V domains shown) VH: EVQLVESGGGLVQPGGSLRLSCAASGFTFSNYAMHWVRQAPGKGLEWVSAISGSGGSTYYADSVKGRFTISRDNSKNTLYLQMNSLRAEDTAVYYCARDLSFWLTYHLASAFDVWGQGTLVTVSS VL: not shown",,no binding (tested: 2x dilution series starting at 100 nM),no binding (tested: 2x dilution series starting at 100 nM),
"N-612-002 (antibody, V domains shown) VH: EVQLVESGGGLVQPGGSLRLSCAASGFTFSSYTMHWVRQAPGKGLEWVSAISGSGGSTYYADSVKGRFTISRDNSKNTLYLQMNSLRAEDTAVYYCARDLFDFWGFDVWGQGTLVTVSS VL: not shown",,no binding (tested: 2x dilution series starting at 100 nM),no binding (tested: 2x dilution series starting at 100 nM),
